B1: Pre-mRNA-processing factor 19 (Saccharomyces cerevisiae), P32523 (parent)
chain: MLCAISGKVPRRPVLSPKSRTIFEKSLLEQYVKDTGNDPITNEPLSIEEIVEIVPSAQQASLTESTNSATLKANYSIPNLLTSLQNEWDAIMLENFKLRSTLDSLTKKLSTVMYERDAAKLVAAQLLMEKNEDSKDLPKSSQQAVAITREEFLQGLLQSSRDFVARGKLKAPKWPILKNLELLQAQNYSRNIKTFPYKELNKSMYYDKWVCMCRCEDGALHFTQLKDSKTITTITTPNPRTGGEHPAIISRGPCNRLLLLYPGNQITILDSKTNKVLREIEVDSANEIIYMYGHNEVNTEYFIWADNRGTIGFQSYEDDSQYIVHSAKSDVEYSSGVLHKDSLLLALYSPDGILDVYNLSSPDQASSRFPVDEEAKIKEVKFADNGYWMVVECDQTVVCFDLRKDVGTLAYPTYTIPEFKTGTVTYDIDDSGKNMIAYSNESNSLTIYKFDKKTKNWTKDEESALCLQSDTADFTDMDVVCGDGGIAAILKTNDSFNIVALTP
partner: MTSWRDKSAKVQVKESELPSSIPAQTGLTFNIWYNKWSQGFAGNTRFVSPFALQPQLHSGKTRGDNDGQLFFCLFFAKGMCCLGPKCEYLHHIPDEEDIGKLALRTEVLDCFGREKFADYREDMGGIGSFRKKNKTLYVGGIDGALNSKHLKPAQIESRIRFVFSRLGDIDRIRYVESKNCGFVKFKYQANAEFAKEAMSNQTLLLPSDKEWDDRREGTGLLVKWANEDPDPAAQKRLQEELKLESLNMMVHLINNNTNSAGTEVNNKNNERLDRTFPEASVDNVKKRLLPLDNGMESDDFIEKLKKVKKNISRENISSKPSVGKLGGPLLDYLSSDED

Variants of: B1
Settings: with cwc2_yeast CWC2, Q12046
With MLCAISGKVPRRPVLSPKSRTIFEKSLLEQYVKDTGNDPITNEPLSIEEIVEIVPSAQQASLTESTNSATLKANYSIPNLLTSLQNEWDAIMLENFKLRSTLDSLTKKLSTVMYERDAAKLVAAQLLMEKNEDSKDLPKSSQQAVAITREEFLQGLLQSSRDFVARGKLKAPKWPILKNLELLQAQNYSRNIKTFPYKELNKSMYYDKWVCMCRCEDGALHFTQLKDSKTITTITTPNPRTGGEHPAIISRGPCNRLLLLYPGNQITILDSKTNKVLREIEVDSANEIIYMYGHNEVNTEYFIWADNRGTIGFQSYEDDSQYIVHSAKSDVEYSSGVLHKASLLLALYSPDGILDVYNLSSPDQASSRFPVDEEAKIKEVKFADNGYWMVVECDQTVVCFDLRKDVGTLAYPTYTIPEFKTGTVTYDIDDSGKNMIAYSNESNSLTIYKFDKKTKNWTKDEESALCLQSDTADFTDMDVVCGDGGIAAILKTNDSFNIVALTP [D341A] the “effect of a mutation on the interaction” value was “decreasing interaction”. With MLCAISGKVPRRPVLSPKSRTIFEKSLLEQYVKDTGNDPITNEPLSIEEIVEIVPSAQQASLTESTNSATLKANYSIPNLLTSLQNEWDAIMLENFKLRSTLDSLTKKLSTVMYERDAAKLVAAQLLMEKNEDSKDLPKSSQQAVAITREEFLQGLLQSSRDFVARGKLKAPKWPILKNLELLQAQNYSRNIKTFPYKELNKSMYYDKWVCMCRCEDGALHFTQLKDSKTITTITTPNPRTGGEHPAIISRGPCNRLLLLYPGNQITILDSKTNKVLREIEVDSANEIIYMYGHNEVNTEYFIWADNRGTIGFQSYEDDSQYIVHSAKSDVEYSSGVLHKDSLLLALYSPDGILDVYNLSSPDQASSRFPVDEEAKIKEVKFADNGYWMVVECDQTVVCFDLRADVGTLAYPTYTIPEFKTGTVTYDIDDSGKNMIAYSNESNSLTIYKFDKKTKNWTKDEESALCLQSDTADFTDMDVVCGDGGIAAILKTNDSFNIVALTP [K404A] the “effect of a mutation on the interaction” value was “decreasing interaction”. In the case of MLCAISGKVPRRPVLSPKSRTIFEKSLLEQYVKDTGNDPITNEPLSIEEIVEIVPSAQQASLTESTNSATLKANYSIPNLLTSLQNEWDAIMLENFKLRSTLDSLTKKLSTVMYERDAAKLVAAQLLMEKNEDSKDLPKSSQQAVAITREEFLQGLLQSSRDFVARGKLKAPKWPILKNLELLQAQNYSRNIKTFPYKELNKSMYYDKWVCMCRCEDGALHFTQLKDSKTITTITTPNPRTGGEHPAIISRGPCNRLLLLYPGNQITILDSKTNKVLREIEVDSANEIIYMYGHNEVNTEYFIWADNRGTIGFQSYEDDSQYIVHSAKSDVEYSSGVLHKDSLLLALYSPDGILDVYNLSSPDQASSRFPVDEEAKIKEVKFADNGYWMVVECDQTVVCFDLAKDVGTLAYPTYTIPEFKTGTVTYDIDDSGKNMIAYSNESNSLTIYKFDKKTKNWTKDEESALCLQSDTADFTDMDVVCGDGGIAAILKTNDSFNIVALTP [R403A], the “effect of a mutation on the interaction” value is reported as “disrupting interaction”. MLCAISGKVPRRPVLSPKSRTIFEKSLLEQYVKDTGNDPITNEPLSIEEIVEIVPSAQQASLTESTNSATLKANYSIPNLLTSLQNEWDAIMLENFKLRSTLDSLTKKLSTVMYERDAAKLVAAQLLMEKNEDSKDLPKSSQQAVAITREEFLQGLLQSSRDFVARGKLKAPKWPILKNLELLQAQNYSRNIKTFPYKELNKSMYYDKWVCMCRCEDGALHFTQLKDSKTITTITTPNPRTGGEHPAIISRGPCNRLLLLYPGNQITILDSKTNKVLREIEVDSANEIIYMYGHNEVNTEYFIWADNRGTIGFQSYEDDSQYIVHSAKSDVEYSSGVLHKDSLLLALYSPDGILDVYNLSSPDQASSRFPVDEEAKIKEVKFADNGAWMVVECDQTVVCFDLRKDVGTLAYPTYTIPEFKTGTVTYDIDDSGKNMIAYSNESNSLTIYKFDKKTKNWTKDEESALCLQSDTADFTDMDVVCGDGGIAAILKTNDSFNIVALTP [Y387A] was tested, and the “effect of a mutation on the interaction” value was “decreasing interaction”. MLCAISGKVPRRPVLSPKSRTIFEKSLLEQYVKDTGNDPITNEPLSIEEIVEIVPSAQQASLTESTNSATLKANYSIPNLLTSLQNEWDAIMLENFKLRSTLDSLTKKLSTVMYERDAAKLVAAQLLMEKNEDSKDLPKSSQQAVAITREEFLQGLLQSSRDFVARGKLKAPKWPILKNLELLQAQNYSRNIKTFPYKELNKSMYYDKWVCMCRCEDGALHFTQLKDSKTITTITTPNPRTGGEHPAIISRGPCNRLLLLYPGNQITILDSKTNKVLREIEVDSANEIIYMYGHNEVNTEYFIWADNRGTIGFQSYEDDSQYIVHSAKSDVEYSSGVLHKDSLLLALYSPDGILDVYNLSSPDQASSRFPVDEEAKIKEVKFADNGYWMVVECDQTVVCFDLAADVGTLAYPTYTIPEFKTGTVTYDIDDSGKNMIAYSNESNSLTIYKFDKKTKNWTKDEESALCLQSDTADFTDMDVVCGDGGIAAILKTNDSFNIVALTP [R403A;K404A] was tested, and the “effect of a mutation on the interaction” value was “disrupting interaction”.

From IntAct's records for PubMed 20462492
